The numbers were not newly measured in US12714740B2, “Compositions comprising a tweak ligand and methods of using same” (Children's Hospital Medical Center, priority 2019, dated 2026), which cites them from elsewhere.

By Kd is commonly meant the equilibrium constant for the complex coming apart.

The data set deals with T1, Fn14 (Homo sapiens, UniProt Q9NP84).
T1 sequence (Q9NP84 28-129): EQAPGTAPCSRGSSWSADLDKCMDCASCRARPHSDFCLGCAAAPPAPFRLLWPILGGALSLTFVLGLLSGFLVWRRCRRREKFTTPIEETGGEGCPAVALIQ
The settings on record: natural ligand binding to Fn14; high affinity; read-out: interaction affinity constant (Kd).

B1: TWEAK: natural ligand for Fn14; 14 kDa protein, TNF superfamily member 12 (protein, UniProt O43508 94-249, looked up)
Tumor necrosis factor ligand …: SAPKGRKTRARRAIAAHYEVHPRPGQDGAQAGVDGTVSGWEEARINSSSPLRYNRQIGEFIVTRAGLYYLYCQVHFDEGKAVYLKLDLLVDGVLALRCLEEFSATAASSLGPQLRLCQVSGLLALRPGSSLRIRTLPWAHLKAAPFLTYFGLFQVH
B1: the Kd was 0.8 to 2.4 nM.
